Results taken from the DeepSol protein solubility set.

Experiment: soluble on expression in E. coli; label from the status in PepcDB or PDB records

Sequence	soluble on expression in E. coli
MAHHHHHHMAVPHGMLISRNDITPDSLVDVPGDRKIVEQISNTMANSSLFKMEKEDHTLANLLRMKLHESPFVQIAGYRVPHPTKHNVELRVQTASNGTDAPVPAPKKALQDAVDGCLKDLEVFEEQLRREAQLKGLEASPS	not soluble
MAHHHHHHMCFVARHKPALISGEAVVWLMERITGEELDVRSLENLCSAVVHLPVAVRTALRQELMEFVAFLSLQARELLQQVPAAQGGLSGCSDADAIQYFVSHVLELTVMLRTYPDLQWPPEFLAAVDACAASVEPLQEALLSAESSPVGLMVRLLEAPTGECKRVGLAMLREAANQCQSFATLQTFRFLLLMGDHGLQDVGTSRYLRDQFAKTAADVPPVQLSVALRCLGVATAGAATQGASGAGELRATVEGTAGNADLDDELERERLDAFLQFCVEVSRKHLSQGAPLRCVLATTESLHRLGCRDTAFFADVAAYIAAKHAAAPAERESADTATAVCAALGEDLLGEYPAVREFLLDVAQRGVRGESAMSPTQWMNLHDPSNALTPLTEQQQESWDIVEEMVRTRSDDVDALVRLAEKYMELLPFARPDDHKYFFGVCEEKVLKQDKLLKKCLDTIVDCGAVSRLSAQTIASILHSLAAIRFEYFASVKRFTSSISDEQWLLMEAAPLVQILTGMDKLSLRTPAVLRRIGGRLTEICRFLTPLDTAQAIHALQALGHNDAKLLGKLAAHAAALARRFDEASMAVLFSTPSIHRLMSTPEVARPLLLQASAKIQSQHRREKISAWVRRSGLPRELIDESTRRLQVTSGDARSSEVHLRLT	not soluble
MAHHHHHHMDKDKDKSKNTPLLYQDTMNDLGDGLQNMDTLRLNRNGNTGNGNKNKTNGSKGVKGEYEKKKETNGHDDYVKESLNRMLESHIDQYFKGLDYYKNNPKCKIDPKIHLHGSEEIENYIVKEKIFVTTYFQYIDVYENAINVDEDLEKEEIVYVEVPKYVTKYKPKIVTNIIEKTIEIPSGEEIKQPKYNTVNVPYVIPNIVENEILVVLKKIIQPEIEITNEELEIEVEKYIPRLVPVNVYVPRYFGISAKAKGEPEESVRYVDLTQDQIDELMKELNPHLNELKVFNETQLKRMDEYMRESQMQARAHNFEPPQPQLITYDESGHCQSYDYSEFHRFKETCIKELTH	not soluble
MAHHHHHHMDQLVYYVMVQHNSIQPIIVRQPPTVVIHTQPNPPITLDLPPQNIILKNDEPQPIIVRQQNPNIIVQKSGNEFSENPNYALSLNQQMKEITSMTSPSAAIPHGGIAQVGIPHVTNEPLLGVTTPEMNELTDPAYIYSNQYITTQNKSQPMNNMYFTSVPLNNDGSYSPYNMTLYANKREDYTKSTPSKY	not soluble
MAHHHHHHMDSIVLPGEALGSCDAYVSGENTYSLQKEVRSAILGRRQLTTNGDGKQVISVANTKEFIPLPQVGDLVTCKVYRVTFNLIYCNIILLNSKAVRNSFRAFINKSDIHVYEGELGDNFECFKQGDIIRAKVLSVAQHGSYKLSTVGSDLGVILALSDGGERKRGKKQKKTKKQKKKKKKKEP	not soluble
MAHHHHHHMDSLYFIGKAQFHQLATHISLYHEDMSDGYKHLSTDAVMAVGLKPHKFTYWNVPMMSGYLGKTVPLDIHGGYVMIDEEKVMPMATSYGMLRYALLTSAVRAKEGGRWRYDFMTMNSTLAIGTAAGLGLLSFGRQRIGWIRRHPIGSVMASFVACLTTTVIARQGIKALGIGIVQAQNSHKRALNCLHCVDCLEDVNTYTLKQIEELKAQQIPQQAGMPPPPEEYVRRFKKGVEMQCRLLETDMEEVRLIRKWAGASLCDVHQHLRDDPMGYKEPHGLVLLASDRARAAERPPLATMPDDKKGIRPAKS	not soluble
MAHHHHHHMEAKFLKLRQEREEQRRHRSKKTGAITLQRQQYEAEAELLEAEVMQLLQEGNVTESQQRIDALRTLVQDTSNSISLTAHEMAKANVILARLQQRVDEKCSGAAPKKFKFSSRLKAKPTSDAEPATPSFSPTGTSDTNEATATATVPIAGTVSSTNGFGNVYGPSTGTDLFISHSKGVFINGCADCAIYCLPIAGSAFLSNCTNCRVYVACHQLRLKGCTNLDLYVWCASTPIIEECDAMRFGPYRCWVGLLSSCTEDGKTYATHAEWVSRVGEIEDTARTEQNYVKVDDFQWVKKRASPHWCVLAREEERASTTVFGPATLPSSSTAHSTVAADH	not soluble
MAHHHHHHMEDAFAGSCVQSLFEPKADLSLCVNKSIKLFLKEVPIPPADSVDRADEQNSTDAKKEQRESALSENLSLLNGYAYFNRIKSNINLLHTELHGIKRDFLFQKKQTKKNIQKLKIVRKQNKIYQSVLQEIKKDRRRKETYELLCTEIQKLEEVNYLNKKQQMEKRDIEDLQQKMKDIENAIRINDENIQRTIQQISDIVSTNLQP	not soluble
MAHHHHHHMEGVSNILSIAGSDSCGGAGIQADIKTAMGLGCHCCTALVVLTAQNTKEVKRIVEIEEAFIVDQLDSIFADVTIDVVKLGVLYSKKIISLVSQYIVQMNKKRGKKLLVVFDPVFVSSSGCLLVENLEYIKFALDLICPISCIITPNFYECKVILQALDCQMDLSKANMTELCKLVTRMLDINACLLKSCNVGENSAEENEVYAVDHLCIRKVGSIPEGEVIQRDAGELGQSAPGGVTYLYDVYKLRSKRKPGVDVHGTGCTLSTAIACYLAKKHNILQSCIESKKYIYNCIRYAYPFGSKSQGLNHLKASQELPTFTDLEVIPIVQDSP	soluble
MAHHHHHHMELGTPNVLPGYDASKSANGSENAKTIISDVNANYNAERKNHTVTHNDEKEGTTHDGGGDEPPQTHSNTERDKEDKIKFEKKKKKSDKLKKEREKEIVVAYWLKGIVKILNAGLKNGDIKGSNFIGKKIAEVLKKVVEISHWNNVYDLIEIIKYLGKEIIRNNKMYFIIPNIIRRVLTIIRTEHFKQLYLYNNNYVDNLNKNNNFLVDKNTNKCINSKYVYEREIKNFEQSFSFYFENNSKKNTYHIPATNTLRHSIIEGITELIADIDTSWGETEQRTSYDLFMENDVILTMGYSVGVEKFLKNINKKKDGISVIVVGGDINRNGFRMAQLLSEDGVDTTYISDSAVFAVIPKVTKVVLGSVAVSSSGGVITKIGGYNIACSAQFNSKPVTIVLPLFKLINDPFYDPIRQNELQPGPSMIYNDADNLYVRIPKYDYIPEHLITLYITEIGPVDSFQLYNITKRTYHPDDLDLSFD	not soluble
MAHHHHHHMERCLLLSAWPTLHEREVKEASEFVRSSSVSRRDSMALSLNHAGAFPSASHSGTHRGSFATMLATGSRAASPHPHDPCATPPPGIRCLDLPEHYHARDTRKNKSAVNDYDEDEDDGAYRSGSCSRCLSRASSFSLGAGGMTPLAWKMSSSMNGESPSCRATESPCSAFAQEHLVATAVMERRVNRMAGGISFQGMTPMDALLAGRLAPPDRREEQQELDESGDARGVSPPFRERSMAPAELVAERTGRQQPR	not soluble
MAHHHHHHMFAIRCPASMLWHPSVHHSLLLLRALEQPHTLLLDTHTASRGRLSVPLLSECAREVRIQTPPGHHEFDSPAGASTERSVLLYRAEDLLHIVNRPLSAGHDLGAACPTQSGVFASLLEYLEASTVSSHVISAIDALLVSLNTGDMETMRQTHACLVELIERLEASITDESLSEAHRTDQKEPLSTWPLFCTLQFLIEEGGMLTSAFPRTNKAYTRLCHSSKAVALHRRLVQRTVEQLLDVGSSANADVSQGARVEMNYPAKGFLREVQRHLASYNRSMEERTTDGVSGEKGPLNSRASGGRLGIQAVQARLPWTLQARPLRKG	soluble
MAHHHHHHMFKFVSSIGDAAYKAASKTGLAAGSEQPPYPCALPLQVIEDCEDTETTERVLNDTYAAVRDLLSDDLPLLHSTISDVQAHKPFKLVDFTDREGDIRLFTRPHVGSYNFARVTLTLDNVSPAKVLTFMHAQSLEARNRYSSNLCQYDVIARNPELPAQYIGNDNDHLEELCRMGIRDWHVEYNRYSAPPPVTARDFVYLVEKRYAPEQRCYYIYGTSVDYRDTAGIAIEKDNCVRGAVVFGWRFQHVGRKTYCTYVSCMSPNGWAPTFIVGWMKTAIAKELQNARRVLYQDVPSCHAAGASSEYAKGALAAYDAPITSCRQNKPTRDHSSSKSSAQKLGNAMEHEERRLLEDEKPIVFE	soluble
MAHHHHHHMFQRARFLLLPIDDVLPAGSRWSRVTALPTSHAHPSGASRASRTGPVTANTTSALPPTPYITFIPTLHVASVKFYDAVLDYMRESVEKNSNVVVLLEGICDNKEGRIQQMDEYMQISRSEELRAAMLEKAEKNTLYNDETIRTICDELAVNYDVLSRELETVRLQECYLRPKMAALMGKNLCNEADIDMEEVEALMLEGDNNDHSGSYGACGSGSVVPITSIGSHPAVRRSREMKVARKARATCVDWLKHGVAGEVILPWGIYHVEGIQRNVLSLNAQDEGIVFVESGNDIRHVPFGIHRDLLVL	not soluble
MAHHHHHHMGDAENNENDKKCLWVPDEEVTNCYSCNAFFNVRVRKHHCRACGNVFCSNCSDNKIKISEYSYAEKVRVCDRCFMERSSPQTLLLQEDLGARKQINQDLKKALSEKMAIVERFKTFLLEFDSEILNNSDHADGSNDVMSLLKRGEKGLKDLNDKIRNYDSIIENQKKELEHLKREKEQKTELNKILHLRNHEIQQKNMNIKNLVKEKNELTLVKEESEGIIHSYKKQVEKLIIRCNQLELEKKRKNYTDQSSNYSFTNSSSQSYMMNSYRLPQNEMSVSYTVAQGPSDDPEEENCCNYCQRRVCSIM	not soluble
MAHHHHHHMGGYIGYNLVYNQQASVSQALWSREDEDVAPVSMPVRPRVALVNMTENLRSCAMGGLRAWLDVADEVELEFPTVTFVEDDEAGAIAGLAAEVRRAALFAWVELKERHEMDAPFGVKPLCCVVFRSITEVDGQALDAWDVQEVELRRWHGKRFVTRHCVGASVDGKRAMVLMHDVEGVIDVGPAAALAGGRVSDCGALVRQYGAPSTASFRRWKLSAEAQSSSTPVQPPAKSLQGLGIRLRDGQRCQLWQSPLHIFAALGAVLRYNRADAAVYPNHITTPVPVSQSASAVSASLWGCVKEWALRCTPTLLHWYTARQAERMERQRQLSSTFVVVVRLAEERAAVTSDVLRVVEEHVAEWMRDMNGASPMKTSLSTANRVCVRDAAARPEELMAAPTIQVDLTDTVCSVIAAEWLLIRLTSLFAALGLEPALAQLVAVPGPQASTSLLYPTPNTAHLRHLWLSRSATTSSSTITDNDAKSPRVTWSGRTTQGEHIAGCAATMPIEAGYVVSEHYFSAF	not soluble
MAHHHHHHMGKRDLQKEKQQELAAIWGSEVQGDARFPKRRRAAQKQGLGAVENNDDVDTDVLSDIVSDAGSITSKHSDTAKKETRKTAKKKSTNYRLHCFVEPGTELNAVRTVFEAYEPKVEIRTAQKGNLLNKSQFAVLTFRNKAMALHAVKKLDGTNQRDLLGVSSLKLNLMLTRQQSKIARKTFNRKIRQEKERNQLMEEQADLAFIRNFLKQHSGAKKDKQNGKALSLS	soluble
MAHHHHHHMGTLEAQTQGPGSMDNKKPKIITIASIKGGVGKSTSAIILATLLSKNNKVLLIDMDTQASITSYFYEKIEKLGINFTKFNIYEILKENVDIDSTIINVDNNLDLIPSYLTLHNFSEDKIEHKDFLLKTSLGTLYYKYDYIVIDTNPSLDVTLKNALLCSDYVIIPMTAEKWAVESLDLFNFFVRKLNLFLPIFLIITRFKKNRTHKTLFEILKTKDRFLGTISEREDLNRRIAENNNFDLNKDYIKEYENILEIFLKKI	soluble
MAHHHHHHMGTLEAQTQGPGSMSVFSGFPASPPDAILNLTVLYNADTNPKKVNLGVGAYRDESGKPWILPAVKEAEAIISSDLSKYNKEYPPVAGFPLFLEAAQFLMFGKDSKAAQEGRIASCQSLSGTGSLHIGFEFLHLWMPKAEFYMPSTTWPNHYGIYDKVFNKLKVPYKEYTYLRKDGELEIDFSNTKKDIQSAPEKSIFLFHACAHNPSGIDFTEAQWKELLPIMKEKKHIAFFDSAYQGFATGSFEADAFAVRMFVDAGVEVLVAQSFSKNFGLYGERIGCLHVVHAGVEGSVEKNKALSAAMVSGMTLQIRKTWSMSAIHGAYIVQVIVHDKRLLQMFYDNVKEMSARIHRMRSLLHASLAKRKTPGPGSKGTWDHILTAIGMFTFTGLTPEHVDYLKEKWSIYLVKAGGRMSMCGLTESNCDYVAEAIHDAVTKLPFKK	soluble
